Test results: patent publication US20180368743, “GRAPHENE-BASED NANOSENSOR FOR IDENTIFYING TARGET ANALYTES” (THE TRUSTEES OF COLUMBIA UNIVERSITY IN THE CITY OF NEW NEW …, published 2018)

Columns and labels:
Settings in all cases: G4
Somatostatin = target: T1, Somatostatin (Homo sapiens, UniProt P61278 P61278:103-116); experiment: graphene FET current change <1.3% at up to 1 uM vs 8.5% for insulin; normalized response <0.192
T1 chain: AGCKNFFWKTFTSC
Method: (§1) To examine the specificity of the nanosensor to insulin over other related analogues that might interfere with the detection of insulin, glucagon and somatostatin, which were secreted by the pancreatic islet alpha and delta cells, respectively, were evaluated as negative control analytes. This is because glucagon [molecular weight (MW): 3.5 kD, PI: 6.2], promoting […] by the liver and together with somatostatin (MW: 1.63 kD, PI: 5.6) regulating the secretion of insulin, share similar physical properties with insulin, which can affect the sensing performance. The functionalized graphene nanosensor was first exposed to somatostatin solutions prior to the introduction of insulin. The change in Ids, denoted as ΔIds, was recorded throughout the experiment and compared as the response of the aptameric nanosensor to the given solutions. To minimize errors caused by device-to-device nonuniformity, the time-resolved selective response as the ratio of ΔIds to ΔIds,max (the maximum value of ΔIds) was calculated:
where Ids,PBS is the Ids measured in fresh PBS buffer. […] On the contrary, the calculated ΔIds/ΔIds,max value increased and reached 1.0 at […] insulin with stepwise increments in the insulin concentration (FIG. 101A).
Additionally, a similar real-time monitoring control experiment was conducted with glucagon (FIG. 107). […]

Insulin = Insulin (Homo sapiens, UniProt P01308;P01308 P01308:25-54,P01308:90-110); experiment: graphene FET, PBS pH 7.4, Hill-Langmuir fit of Dirac voltage shift
Insulin, sequence (P01308 25-54, chain 1 of 2): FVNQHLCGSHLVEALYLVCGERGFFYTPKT
Insulin, sequence (P01308 90-110, chain 2 of 2): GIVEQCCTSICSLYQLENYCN
Method: The nanosensor insulin measuring capabilities were subsequently tested in PBS buffer. Insulin solutions of increasing concentrations from 100 pM to […] were sequentially introduced to the PDMS chamber of the nanosensor. The binding of insulin to the IGA3 aptamer was allowed to reach equilibrium before the replenishment of sample solutions.
The binding of insulin and aptamer was allowed to reach equilibrium for 10 min before the replenishment of higher concentration insulin solution. Thus, the dipping time of graphene in solutions was increased with the ongoing experiment. The slight decrease in the minimum of Ids (Ids,min,) in the transfer characteristic curve, observed in FIG. 99A was considered as a result of the increase in the ionic strength caused by the evaporation of PBS buffer (150 mM NaCl) with increasing dipping time.
Further, the equilibrium dissociation constant (KD) for the IGA3 aptamer and insulin with different VDirac at corresponding insulin concentrations was evaluated using the aptamer-functionalized GFETs. […] The change in VDirac, denoted as ΔVDirac, is plotted as a function of insulin concentrations with error bars obtained from three different devices (FIG. 99B).

Glucagon = Glucagon (Homo sapiens, UniProt P01275 P01275:53-81); experiment: graphene FET current change <1.3% at up to 1 uM vs 8.5% for insulin
Glucagon, sequence (P01275 53-81, one chain of several): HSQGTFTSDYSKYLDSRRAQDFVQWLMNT
Method: as §1
Additionally, a similar real-time monitoring control experiment was conducted with glucagon (FIG. 107). […] Here, ΔIds,S(C)=Ids,S(C)−Ids,PBS, where Ids,S(C) is the Ids measured at the binding equilibrium for given solutions (insulin/glucagon/somatostatin) at representative tested concentrations.

## GGTGGTGGGGGGGGTTGGTAGGGTGTCTTC (ssDNA, 5'-NH2 (coupled to PASE on graphene)) [IGA3 insulin aptamer]
Somatostatin
  binding result: no binding
Insulin
  Kd: 35 nM
Glucagon
  binding result: no binding
